Results as given in the supplement of paper PMC7125110.
± gives the standard error. Fewer inactive variants are shown than the library holds.

B1: glmS ribozyme (parent)
chain: AUAAAAGCGCCAGAACUACAGAAAUGUAGUUGACGAGGAGGAGGUUUAUCGAAUUUUCGGCGGAUGCCUCCAAA

Legend:
Conditions in all cases: with glucosamine-6-phosphate
glucosamine-6-phosphate [1] = variants of: B1; test: self-cleavage kobs at 40 uM GlcN6P; higher = faster cleavage; RNA array
Summary of the method: (§1)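 kobs was derived by fitting per-tile medians to one- or two-exponential decays after normalising signals to baseline and to non-cleaving reference variants. Those signals came from barcoded ribozyme variants transcribed in situ by E. coli RNA polymerase on sequenced MiSeq chips, followed through a hybridised Cy3 probe at 37 °C and imaged over ~14 h. Glucosamine-6-phosphate (40 μM to 10 mM) in HEPES/KCl/Mg(OAc)2 buffer was flowed in. Weighted Michaelis–Menten fits across concentrations then gave kcat and KM.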

glucosamine-6-phosphate [2] = variants of: B1; test: self-cleavage kobs at 10000 uM GlcN6P; higher = faster cleavage; RNA array
Summary of the method: as §1

glucosamine-6-phosphate [3] = variants of: B1; test: self-cleavage kobs at 160 uM GlcN6P; higher = faster cleavage; RNA array
Summary of the method: as §1

glucosamine-6-phosphate [4] = variants of: B1; test: self-cleavage kobs at 640 uM GlcN6P; higher = faster cleavage; RNA array
Summary of the method: as §1

glucosamine-6-phosphate [5] = variants of: B1; test: self-cleavage kobs at 2500 uM GlcN6P; higher = faster cleavage; RNA array
Summary of the method: as §1

Row | Variant | self-cleavage kobs at 40 uM GlcN6P (glucosamine-6-phosphate [1]) | self-cleavage kobs at 10000 uM GlcN6P (glucosamine-6-phosphate [2]) | self-cleavage kobs at 160 uM GlcN6P (glucosamine-6-phosphate [3]) | self-cleavage kobs at 640 uM GlcN6P (glucosamine-6-phosphate [4]) | self-cleavage kobs at 2500 uM GlcN6P (glucosamine-6-phosphate [5])
1 | C16A A42C G66U | < 1e-05 s⁻¹ | < 1e-05 s⁻¹ | – | – | –
2 | A15C G41U C70A | 0.000696 ± 0.00013 s⁻¹ | – | – | – | –
3 | A15U G60A C61A G66U | < 1e-05 s⁻¹ | – | – | – | –
4 | A15G C71U | 0.00111 ± 0.0001 s⁻¹ | 0.0519 ± 0.014 s⁻¹ | 0.00193 ± 0.00039 s⁻¹ | 0.00696 ± 0.0013 s⁻¹ | 0.0534 ± 0.021 s⁻¹
5 | C16U A36G | < 1e-05 s⁻¹ | – | < 1e-05 s⁻¹ | < 1e-05 s⁻¹ | –
6 | C16U U55A | 0.000949 ± 0.00012 s⁻¹ | 0.0419 ± 0.0089 s⁻¹ | 0.00192 ± 0.00041 s⁻¹ | 0.00568 ± 0.0014 s⁻¹ | 0.0131 ± 0.0022 s⁻¹
7 | C16U U55G | 0.000446 ± 7.1e-05 s⁻¹ | 0.0464 ± 0.01 s⁻¹ | 0.00102 ± 0.00026 s⁻¹ | 0.00467 ± 0.0013 s⁻¹ | 0.00554 ± 0.0013 s⁻¹
8 | U30C C34U | < 1e-05 s⁻¹ | – | – | < 1e-05 s⁻¹ | –
9 | G21U G32A C50G U57G C70G | 0.000174 ± 3.9e-05 s⁻¹ | 0.000301 ± 6.1e-05 s⁻¹ | – | – | –
10 | A15G G44U C68G | < 1e-05 s⁻¹ | – | – | – | –
11 | A15U C16A G60U | < 1e-05 s⁻¹ | < 1e-05 s⁻¹ | – | – | –
12 | G29U G32C C61G | < 1e-05 s⁻¹ | < 1e-05 s⁻¹ | – | – | –
13 | A15C G43U U54C | < 1e-05 s⁻¹ | < 1e-05 s⁻¹ | – | – | –
14 | G29U A52C G66A | < 1e-05 s⁻¹ | – | – | – | –
15 | A15U G43U | < 1e-05 s⁻¹ | < 1e-05 s⁻¹ | < 1e-05 s⁻¹ | < 1e-05 s⁻¹ | –
16 | C16U G32C G40U C58U | < 1e-05 s⁻¹ | – | – | – | –
17 | A15G C50A | < 1e-05 s⁻¹ | 3.83e-05 ± 1.4e-05 s⁻¹ | – | – | –
18 | A15U G40U G44A | < 1e-05 s⁻¹ | < 1e-05 s⁻¹ | – | – | –
19 | A14U G35U G44C U57C | < 1e-05 s⁻¹ | < 1e-05 s⁻¹ | – | – | < 1e-05 s⁻¹
20 | A15G U30C C67A | 0.000291 ± 6.8e-05 s⁻¹ | 0.0108 ± 0.0031 s⁻¹ | 0.00105 ± 0.00028 s⁻¹ | 0.00103 ± 0.00029 s⁻¹ | 0.00517 ± 0.0012 s⁻¹
21 | A15C A53U G62A | < 1e-05 s⁻¹ | < 1e-05 s⁻¹ | – | – | < 1e-05 s⁻¹
22 | A15C A39G U56G | 4.71e-05 ± 1.6e-05 s⁻¹ | 0.00218 ± 0.00029 s⁻¹ | – | – | –
23 | A15U G35U | < 1e-05 s⁻¹ | < 1e-05 s⁻¹ | < 1e-05 s⁻¹ | < 1e-05 s⁻¹ | < 1e-05 s⁻¹
